B1: Twister Ribozyme (parent)
chain: AACACUGCCAAUGCCGGUCCCAAGCCCGGAUAAAAGUGGAGGGGGCGG

Variants of: B1
Test: self-cleavage, relative activity (ratio to wild type); higher = more cleavage; co-transcriptional

| Variant | self-cleavage |
| --- | --- |
| AAUACGGCCAAUGCCGGUCCCAAGCCCGGAUAAAAGUGGAGGGGGCGG | 0.106 |
| AACCCUGCCAAUGCCGGUCCCAAGCCCGGAUAAUAGUGGAGGGGGCGG | 0.0292 |
| AACCCUGCCAAUGCCGGUCCCAAGCCCGGAUAAGAGUGGAGGGGGCGG | 0.0947 |
| AAUACUGCCAAUGCCGGUCCCAAGCCCGGAGAAAAGUGGAGGGGGCGG | 0.445 |
| AAUACUGCCAAUGCCGGUCCCAAGCCCGGACAAAAGUGGAGGGGGCGG | 0.391 |
| AACCCUGCCAAUGCCGGUCCAAAGCCCGGAUAAAAGUGGAGGGGGCGG | 0.105 |
| AACCCUGCCAAUGCCGGUCCGAAGCCCGGAUAAAAGUGGAGGGGGCGG | 0.0577 |
| AACCCUGCCAAUGCCGGUCCUAAGCCCGGAUAAAAGUGGAGGGGGCGG | 0.0583 |
| AAUACUGCCAAUGCCGCUCCCAAGCCCGGAUAAAAGUGGAGGGGGCGG | 0.0683 |
| AAUACUGCCAAUGCCGUUCCCAAGCCCGGAUAAAAGUGGAGGGGGCGG | 0.0762 |
| AACCCUGCCAAUGCCGGUCCCAAGACCGGAUAAAAGUGGAGGGGGCGG | 0.0458 |
| AACCCUGCCAAUGCCGGUCCCAAGGCCGGAUAAAAGUGGAGGGGGCGG | 0.0395 |
| AAUACUGCCAAUGCCGGUCCCAAGCCCGGCUAAAAGUGGAGGGGGCGG | 0.335 |
| AAUACUGCCAAUGCCGGUCCCAAGCCCGGGUAAAAGUGGAGGGGGCGG | 0.422 |
| AAUACUGCCAAUGCCGGUCCCAAGCCCGGAUAAAAGUGGAGUGGGCGG | 0.0877 |
| AAUACUGCCAAUGCCGGUCCCAAGCCCGGAUAAAAGUGGAGAGGGCGG | 0.0772 |
| AAUACUGCCAAUGCCGGUCCCAAGCCCGGAUAAAAAUGGAGGGGGCGG | 0.115 |
| AAUACUGCCAAUGCCGGUCCCAAGCCCGGAUAAAAGUGGACGGGGCGG | 0.099 |
| AAUACUGCCAAUGCCGGUCCCAAGCCCGGAUAAAAGUGGAAGGGGCGG | 0.117 |
| AAUACUGCCAAUGCCGGUCCCAAGCACGGAUAAAAGUGGAGGGGGCGG | 0.148 |
| AACCCUGACAAUGCCGGUCCCAAGCCCGGAUAAAAGUGGAGGGGGCGG | 0.119 |
| AACCCUGUCAAUGCCGGUCCCAAGCCCGGAUAAAAGUGGAGGGGGCGG | 0.108 |
| AAUACUGUCAAUGCCGGUCCCAAGCCCGGAUAAAAGUGGAGGGGGCGG | 0.216 |
| AAUACUGGCAAUGCCGGUCCCAAGCCCGGAUAAAAGUGGAGGGGGCGG | 0.0577 |
| AAUACUGACAAUGCCGGUCCCAAGCCCGGAUAAAAGUGGAGGGGGCGG | 0.17 |
| AACCGUGCCAAUGCCGGUCCCAAGCCCGGAUAAAAGUGGAGGGGGCGG | 0.0446 |
| AACCUUGCCAAUGCCGGUCCCAAGCCCGGAUAAAAGUGGAGGGGGCGG | 0.701 |

| Variant | self-cleavage |
| --- | --- |
| AACCCUGCCAAUGCCGGUCCCAAGCCCGGAUACAAGUGGAGGGGGCGG | 0.108 |
| AACCCUGCCAAUGCCGGUCCCAAGCCCGGAUAGAAGUGGAGGGGGCGG | 0.146 |
| AACCCUGCCAAUGCCGGUCCCAAGCCCGGAUAUAAGUGGAGGGGGCGG | 0.152 |
| AAUACUGCCAAUGCCGGACCCAAGCCCGGAUAAAAGUGGAGGGGGCGG | 0.158 |
| AAUACUGCCAAUGCCGGCCCCAAGCCCGGAUAAAAGUGGAGGGGGCGG | 0.215 |
| AAUACUGCCAAUGCCGGGCCCAAGCCCGGAUAAAAGUGGAGGGGGCGG | 0.0621 |
| AAUACUGCCAAUGCCGGUGCCAAGCCCGGAUAAAAGUGGAGGGGGCGG | 0.106 |
| AACCCUGCCAAUGCGGGUCCCAAGCCCGGAUAAAAGUGGAGGGGGCGG | 0.0431 |
| AACCCUGCCAAUGUCGGUCCCAAGCCCGGAUAAAAGUGGAGGGGGCGG | 0.257 |
| AACCCUGCCAAUGACGGUCCCAAGCCCGGAUAAAAGUGGAGGGGGCGG | 0.33 |
| AAUACUGCCGAUGCCGGUCCCAAGCCCGGAUAAAAGUGGAGGGGGCGG | 0.474 |
| AAUACUGCCUAUGCCGGUCCCAAGCCCGGAUAAAAGUGGAGGGGGCGG | 0.584 |
| AACCCUGCCAAUGCCGGUCCCAUGCCCGGAUAAAAGUGGAGGGGGCGG | 0.0688 |
| AACCCUGCCAAUGCCGGUCCCACGCCCGGAUAAAAGUGGAGGGGGCGG | 0.0177 |
| AAUACUGCCAAUGCCGGUCCCAAGCCCUGAUAAAAGUGGAGGGGGCGG | 0.325 |
| AAUACUGCCAAUGCCGGUCCUAAGCCCGGAUAAAAGUGGAGGGGGCGG | 0.0611 |
| AAUACUGCGAAUGCCGGUCCCAAGCCCGGAUAAAAGUGGAGGGGGCGG | 0.12 |
| AAUACUGCAAAUGCCGGUCCCAAGCCCGGAUAAAAGUGGAGGGGGCGG | 0.147 |
| AACCCUGCCAAUGCCGGUCGCAAGCCCGGAUAAAAGUGGAGGGGGCGG | 0.0372 |
| AACCCUGCCAAUGCCGGUCACAAGCCCGGAUAAAAGUGGAGGGGGCGG | 0.0653 |
| AAUACUGCCAAUGCCGGUCCCAAGCCCGGAUAAAAGCGGAGGGGGCGG | 0.172 |
| AAUACUGCCAAUGCCGGUCCCAAGCCCGGAUAAAAGGGGAGGGGGCGG | 0.406 |
| AACCCUGCUAAUGCCGGUCCCAAGCCCGGAUAAAAGUGGAGGGGGCGG | 0.0772 |
| AACCCUGCGAAUGCCGGUCCCAAGCCCGGAUAAAAGUGGAGGGGGCGG | 0.107 |
| AAUACUCCCAAUGCCGGUCCCAAGCCCGGAUAAAAGUGGAGGGGGCGG | 0.0424 |
| AAUACUACCAAUGCCGGUCCCAAGCCCGGAUAAAAGUGGAGGGGGCGG | 0.0905 |
| AACCCUACCAAUGCCGGUCCCAAGCCCGGAUAAAAGUGGAGGGGGCGG | 0.0506 |

— the RNAGym collection of RNA variant scans (doi:10.7554/elife.80360)
